Results: patent publication US20250269018A1, “COMBINED CANCER THERAPY WITH AN EPITHELIAL CELL ADHESION MOLECULE (EPCAM) INHIBITOR AND A HEPATOCYTE GROWTH FACTOR RECEPTOR (HGFR) INHIBITOR” (ACADEMIA SINICA, priority 2021, published 2025)

Key:
EpCAM = molecular target: T1, EpCAM (Homo sapiens, UniProt P16422); assay: Antibody binding to EpCAM wild-type and mutants expressed in HEK293T cells (immunofluorescence, flow cytometry, cellular ELISA); conditions: conclusion from deletion and point mutants
T1 sequence (P16422 24-314): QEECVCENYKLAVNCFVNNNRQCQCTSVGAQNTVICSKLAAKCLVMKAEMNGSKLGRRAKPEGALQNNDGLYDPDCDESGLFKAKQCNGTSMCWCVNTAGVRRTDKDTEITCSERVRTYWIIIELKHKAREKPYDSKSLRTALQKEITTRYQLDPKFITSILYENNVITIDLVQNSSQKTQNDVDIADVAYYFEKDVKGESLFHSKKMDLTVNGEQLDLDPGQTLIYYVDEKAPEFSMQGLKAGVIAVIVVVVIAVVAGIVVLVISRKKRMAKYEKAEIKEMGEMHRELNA
Experimental: FIGS. 8A to 8G. EpAb2-6 binds to both EGF-like domain I and II of EpCAM. HEK293T cells were transfected with full length or EGF like-domain deletion mutant EpCAM-V5. Antibody binding was assessed by (FIG. 8A) Western blotting, (FIG. 8B) flow cytometry, and (FIG. 8C) immunofluorescence. (FIG. 8D) EpCAM mutants were constructed with amino acid substitutions in the EGF-I (Y32A) and EGF-II (L94A, Y95A, or D96A) domains. EpCAM wild-type and mutant proteins were expressed in HEK293T cells. Binding of MT201, EpAb2-6 and EpAb23-1 to EpCAM wild-type and mutants were evaluated by (FIG. 8E) immunofluorescence, (FIG. 8F) flow cytometry, and (FIG. 8G) cellular ELISA.
A previous study identified the binding epitope of EpAb2-6 antibody as the LYD motif in EpCAM, which corresponds to amino acid residues 94-96; in particular, residue 95 (Y95) plays a major role in EpAb2-6 binding (Liao et al., 2015). […] Therefore, we wanted to determine whether the antibody binds to EpCAM at both EGF-like domains of EpEX (FIG. 8A, FIG. 8B, FIG. 8C). To confirm that EpAb2-6 recognizes the LYD motif in EpCAM, we constructed cDNA sequences encoding the first (aa 27-59; EGF-I domain) and second (aa 66-135; EGF-II/TY domain) EGF-like repeats of EpCAM. PCR-based site-directed mutagenesis was then used to introduce mutations into each domain (FIG. 8D). The reactivity of EpAb2-6 antibody toward these EpCAM mutants was evaluated by immunofluorescence (FIG. 8E), flow cytometry (FIG. 8F), and cellular ELISA (FIG. 8G).

EpCAM and HGFR = molecular target: T2, EpCAM and HGFR (Homo sapiens, UniProt P16422); assay: Immunoprecipitation of endogenous EpCAM and HGFR in HCT116 cells; type: cell-based; conditions: 6 h treatment, IP of endogenous proteins, FIG. 6E
T2 construct: as detected by IP of endogenous proteins in HCT116 cells; endogenous in cells; host or cells: HCT116
T2 sequence (P16422 24-314): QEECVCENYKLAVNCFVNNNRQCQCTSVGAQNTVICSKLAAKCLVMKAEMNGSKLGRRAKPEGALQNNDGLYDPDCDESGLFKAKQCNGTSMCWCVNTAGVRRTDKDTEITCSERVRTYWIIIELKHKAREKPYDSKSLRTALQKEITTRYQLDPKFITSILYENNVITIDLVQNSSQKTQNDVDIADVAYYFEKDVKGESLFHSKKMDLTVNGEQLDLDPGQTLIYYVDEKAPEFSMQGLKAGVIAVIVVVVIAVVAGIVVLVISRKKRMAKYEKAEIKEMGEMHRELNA
Experimental: FIGS. 6A to 6J. EpAb2-6 inhibits EpCAM and HGFR signaling and promotes active β-catenin and Snail protein degradation via activating GSK3β. (FIG. 6A) HCT116 cells were treated with 10 μg/ml control IgG (normal mouse IgG, NMIgG) or mouse EpAb2-6 (EpAb2-6) for 16 h, followed by treatment with EpEX-His (50 nM) for 15 min. Levels of phosphorylated HGFR, AKT, FAK, GSK3β, ERK, ADAM17, and presenilin 2 were examined by Western blotting. (FIG. 6B) HCT116 cells were treated with 10 μg/ml control IgG or mouse EpAb2-6 for 16 h, followed by treatment without or with HGF (0.5 nM) for 15 min. Levels of phosphorylated HGFR, AKT, and ERK were examined by Western blotting. HCT116 cells were treated with mouse EpAb2-6 (10 μg/ml) and HGF (0.5 nM). […] (FIG. 6D) Cell invasion was assessed by a Transwell assay with matrigel after 24 h. […] (FIG. 6F) EpEX-His (2 μg/ml) co-treated with 1 μg IgG or EpAb2-6 was added to HGFR-Fc-coated (1 μg/ml) ELISA plates and detected by TMB colorimetric peroxidase assay. (FIG. 6G) EMT associated protein levels were detected by Western blotting in HCT116 cells treated with NMIgG or EpAb2-6 for 24 h. (FIG. 6H) Protein expression was analyzed by Western blotting in HCT116 cells after treatment with EpAb2-6 and 2 μM GSK3β inhibitor (BIO) for 24 h. Quantification of the normalized protein expression in the bottom panel. […]

[1] = system: GSK3β, active β-catenin and Snail; assay: Western blotting of GSK3β, active β-catenin, Snail and EMT proteins in HCT116 cells; type: cell-based, human
HT29-Luc cells = assay: Orthotopic animal model, HT29-Luc; conditions: FIG. 9H, 9I
Experimental: (FIG. 9C) Timeline of the experiment to evaluate EpAb2-6 and/or crizotinib in the in orthotopic animal models. (FIG. 9D) NOD/SCID mice received orthotopic implantation of HCT116-Luc cells and then were treated with control IgG (normal mouse IgG, NMIgG), crizotinib, EpAb2-6, or crizotinib combined with EpAb2-6 starting at 3 days after tumor inoculation (n=5). Tumor growth was monitored by examining bioluminescence with the IVIS 200 Imaging System. (FIG. 9E) HCT116-Luc tumor cells monitored by bioluminescence quantification. […] (FIG. 9H) NOD/SCID mice were orthotopically implanted with HT29-Luc cells and then treated with control IgG, crizotinib, EpAb2-6, or crizotinib combined with EpAb2-6 starting at 3 days after tumor inoculation (n=5). Tumor growth was monitored by examining bioluminescence with an IVIS 200 Imaging System. (FIG. 9I) HT29-Luc tumor cells monitored by bioluminescence quantification.
Orthotopic tumor models were created as previously reported (Chen et al., 2020). Briefly, NSCID mice were used for orthotopic implantation of HCT116 cells previously infected with Lenti-luc virus (lentivirus containing luciferase gene). […] Tumor development was monitored by bioluminescence imaging. […] Tumor progression was monitored by quantification of bioluminescence. Mouse survival was also monitored.

B1: EpAb2-6: anti-EpCAM neutralizing monoclonal antibody targeting EpEX; VH SEQ ID NO: 15, VL SEQ ID NO: 16 (antibody, listed as Homo sapiens, V domains shown)
VH: VKLQESGPELKKPGETVKISCKASGYTFTDYSMHWVKQAPGKGLKWMGWINTETGEPTYADDFKGRFAFSLETSASTAYLQINNLKNEDTATYFCARTAVYWGQGTTVTVSS
VL: DIQMTQSPSSLSASLGERVSLTCRASQEISVSLSWLQQEPDGTIKRLIYATSTLDSGVPKRFSGSRSGSDYSLTISSLESEDFVDYYCLQYASYPWTFGGGTKLEIKRADAAPTVS
EpEX domains and residues bound (EpCAM): binds to the EGF-I and EGF-II domains of EpEX, respectively targeting amino acid residues Y32 and Y95 | association between EpCAM and HGFR (EpCAM and HGFR): decreased the association between EpCAM and HGFR | Active β-catenin and Snail steady-state protein levels ([1]; 10 μM MG132 and EpAb2-6 for 6 h, FIG. 6I): reduced | activating phosphorylation of GSK3β at Y216 (active GSK3β) ([1]; 24 h, FIG. 6H): increased activating phosphorylation of the protein at Y216 | suppressive phosphorylation of GSK3β at S9 (inactive GSK3β) ([1]; 24 h, FIG. 6H): decreased suppressive phosphorylation of GSK3β at S9 | levels of E-cadherin ([1]; 24 h, vs control IgG, FIG. 6G): increased the levels of E-cadherin | levels of Snail and the active β-catenin ([1]; 24 h, vs control IgG, FIG. 6G): decreasing Snail and the active β-catenin | bioluminescence intensities (HT29-Luc cells): significantly decreased compared to the control IgG or crizotinib alone groups
